To fix the notation:
T1: CD123 (Homo sapiens (Human), UniProt P26951 19-305, limits assumed)
T1 construct: The CD123 construct used in the ELISA is not described; also called CD123-Signal
T1 sequence: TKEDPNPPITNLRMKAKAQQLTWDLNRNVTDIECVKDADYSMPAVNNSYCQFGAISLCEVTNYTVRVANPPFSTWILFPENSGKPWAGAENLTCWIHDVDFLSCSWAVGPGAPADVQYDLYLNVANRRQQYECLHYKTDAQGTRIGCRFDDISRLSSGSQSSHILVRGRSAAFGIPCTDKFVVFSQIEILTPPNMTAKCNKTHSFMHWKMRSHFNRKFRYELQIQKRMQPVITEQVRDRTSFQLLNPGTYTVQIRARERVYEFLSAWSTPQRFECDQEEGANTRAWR

B1: D domain of SEQ ID NO: 624 (designed binder)
chain: MGSWVEFDNRLFAIDERLWALGGSEAELAWFEEEIASFEDNLQKYKGKGNPEVEALQLEAFAIMEELDAYRHN
B2: D domain of SEQ ID NO: 645 (designed binder)
chain: MGSWYEFFDRLDAIDERLWALGGSEAELAWFEAEIAEFEMELQGYKGKGNPEVEALDVEAHAIEMELFAYRHN
B3: D domain of SEQ ID NO: 620 (designed binder)
chain: MGSWIEFEDRLDAITDRLWALGGSEAELAEFEHQIAFFEEDLQWYKGKGNPEVEALHMEAEAIMEELGAYRHN
B4: D domain of SEQ ID NO: 630 (designed binder)
chain: MGSWWEFDSRLDAIDFRLWALGGSEAELAWFEVEIADFEDWLQLYKGKGNPEVEALWHEADAIVTELYAYRHN
B5: D domain of SEQ ID NO: 643 (designed binder)
chain: MGSWDEFEFRLEAIDSRLWALGGSEAELAVFEYEIAQFEFMLQEYKGKGNPEVEALGMEAWAIENELFAYRHN
B6: D domain of SEQ ID NO: 639 (designed binder)
chain: MGSWWEFEIRLDAIDERLWALGGSEAELAWFEQSIAFFENDLQVYKGKGNPEVEALRWEANAIIEELFAYRHN
B7: D domain of SEQ ID NO: 641 (designed binder)
chain: MGSWYEFVYRLRAIDERLDALGGSEAELAMFEFEIAFFEDQLQRYKGKGNPEVEALVDEAQAIDFELFAYRHN
B8: D domain of SEQ ID NO: 640 (designed binder)
chain: MGSWYEFEWRLDAIDRRLWALGGSEAELADFEEEIADFEWMLQNYKGKGNPEVEALVDEASAIQTELWAYRHN
B9: D domain of SEQ ID NO: 621 (designed binder)
chain: MGSWMEFEDRLMAIVDRLWALGGSEAELADFEWNIAMFEEELQWYKGKGNPEVEALGDEAEAIEWELYAYRHN
B10: D domain of SEQ ID NO: 635 (designed binder)
chain: MGSWFEFNDRLDAISERLSALGGSEAELAYFEWQIAVFEKTLQNYKGKGNPEVEALTLEANAIFEELEAYRHN
B11: D domain of SEQ ID NO: 634 (designed binder)
chain: MGSWFEFGDRLEAIDERLYALGGSEAELAQFEWWIAEFEHHLQDYKGKGNPEVEALEYEADAIWGELHAYRHN
B12: D domain of SEQ ID NO: 625 (designed binder)
chain: MGSWFEFDDRLEAIFDRLWALGGSEAELAMFEFAIAEFEDALQEYKGKGNPEVEALYEEAVAIDEELYAYRHN
B13: D domain of SEQ ID NO: 647 (designed binder)
chain: MGSWVEFSNRLDAIWERLQALGGSEAELAYFEWEIAEFEWELQSYKGKGNPEVEALNAEADAIEWELEAYRHN
B14: D domain of SEQ ID NO: 644 (designed binder)
chain: MGSWEEFEWRLDAIDERLWALGGSEAELATFEYEIAIFENELQQYKGKGNPEVEALDSEAYAIERELGAYRHN
B15: D domain of SEQ ID NO: 632 (designed binder)
chain: MGSWYEFQERLDAIDSRLWALGGSEAELAWFEYTIAEFEKELQMYKGKGNPEVEALGTEAVAISEELMAYRHN
B16: D domain of SEQ ID NO: 652 (designed binder)
chain: MGSWIEFWNRLEAIEERLYALGGSEAELAYFEDEIAEFEIYLQQYKGKGNPEVEALKHEAEAINKELMAYRHN
B17: D domain of SEQ ID NO: 631 (designed binder)
chain: MGSWYEFDERLDAIFDRLWALGGSEAELAYFEQVIATFEKTLQRYKGKGNPEVEALDTEAKAISWELDAYRHN
B18: D domain of SEQ ID NO: 646 (designed binder)
chain: MGSWYEFMGRLEAIDERLQALGGSEAELAWFEHEIAEFEWSLQWYKGKGNPEVEALRFEAGAIPWELWAYRHN
B19: D domain of SEQ ID NO: 626 (designed binder)
chain: MGSWFEFDARLMAINDRLWALGGSEAELAAFEYHIALFEDQLQMYKGKGNPEVEALTLEAVAINEELWAYRHN
B20: D domain of SEQ ID NO: 649 (designed binder)
chain: MGSWWEFKYRLDAICFRLAALGGSEAELASFEDEIAYFEEDLQGYKGKGNPEVEALDYEALAIWDELAAYRHN
B21: D domain of SEQ ID NO: 618 (designed binder)
chain: MGSWYEFEERLDAIEDRLIALGGSEAELAIFEDIIAFFEQDLQYYKGKGNPEVEALEMEAEAISIELDAYRHN
B22: D domain of SEQ ID NO: 648 (designed binder)
chain: MGSWEEFHMRLIAIDERLWALGGSEAELAGFEESIAYFESQLQDYKGKGNPEVEALDYEAHAIWRELYAYRHN
B23: D domain of SEQ ID NO: 616 (designed binder)
chain: MGSWLEFEYRLDAIYDRLFALGGSEAELAAFEQDIADFEKYLQYYKGKGNPEVEALWEEADAIMWELFAYRHN
B24: D domain of SEQ ID NO: 619 (designed binder)
chain: MGSWHEFEKRLYAIEDRLIALGGSEAELAWFEDSIAWFEWDLQMYKGKGNPEVEALNEEADAIYQELDAYRHN
B25: D domain of SEQ ID NO: 623 (designed binder)
chain: MGSWEEFLFRLEAIQDRLWALGGSEAELAWFEYEIASFEDVLQSYKGKGNPEVEALSTEAKAIDYELFAYRHN
B26: D domain of SEQ ID NO: 622 (designed binder)
chain: MGSWEEFEDRLFAIDSRLWALGGSEAELAEFENIIASFEEVLQEYKGKGNPEVEALSVEAFAIDRELGAYRHN
B27: D domain of SEQ ID NO: 651 (designed binder)
chain: MGSWWEFNARLDAIEDRLMALGGSEAELAYFEDIIASFENILQQYKGKGNPEVEALWYEAYAIEKELNAYRHN
B28: D domain of SEQ ID NO: 655 (designed binder)
chain: MGSWLEFETRLHAIDERLWALGGSEAELAEFEEHIAWFEEDLQFYKGKGNPEVEALDFEADAIGWELWAYRHN
B29: D domain of SEQ ID NO: 633 (designed binder)
chain: MGSWEEFEDRLWAIDGRLYALGGSEAELAWFEQWIATFEEDLQDYKGKGNPEVEALEYEASAIFEELEAYRHN
B30: D domain of SEQ ID NO: 637 (designed binder)
chain: MGSWIEFMDRLWAIDQRLWALGGSEAELAWFEEEIAWFEEELQVYKGKGNPEVEALEWEATAISEELWAYRHN
B31: D domain of SEQ ID NO: 642 (designed binder)
chain: MGSWWEFEDRLYAIDDRLWALGGSEAELAQFEREIAQFEIWLQEYKGKGNPEVEALDDEATAINSELFAYRHN
B32: D domain of SEQ ID NO: 653 (designed binder)
chain: MGSWNEFVIRLFAIDDRLYALGGSEAELAWFEDEIATFEYELQRYKGKGNPEVEALEYEAEAIVSELFAYRHN
B33: D domain of SEQ ID NO: 627 (designed binder)
chain: MGSWVEFDSRLAAIDYRLEALGGSEAELAWFEYTIANFEHTLQMYKGKGNPEVEALVYEAHAIATELQAYRHN
B34: D domain of SEQ ID NO: 628 (designed binder)
chain: MGSWTEFDERLDAIDWRLEALGGSEAELAWFEGDIALFEQYLQVYKGKGNPEVEALMEEADAIKAELDAYRHN
B35: D domain of SEQ ID NO: 617 (designed binder)
chain: MGSWHEFEERLMAIEDRLWALGGSEAELAEFEQWIALFEYDLQEYKGKGNPEVEALGMEAFAINNELSAYRHN
B36: D domain of SEQ ID NO: 636 (designed binder)
chain: MGSWVEFMDRLEAIEERLSALGGSEAELAFFEWEIAEFEEHLQVYKGKGNPEVEALEWEALAITEELAAYRHN
B37: D domain of SEQ ID NO: 638 (designed binder)
chain: MGSWEEFNWRLRAIDERLFALGGSEAELAWFEYDIAEFEEQLQVYKGKGNPEVEALRVEAAAIAEELYAYRHN
B38: D domain of SEQ ID NO: 650 (designed binder)
chain: MGSWDEFAMRLEAIQARLFALGGSEAELAIFEDEIAFFETMLQDYKGKGNPEVEALEYEAAAIEAELGAYRHN
B39: D domain of SEQ ID NO: 654 (designed binder)
chain: MGSWYEFLARLYAIDERLWALGGSEAELATFEHWIADFEEQLQSYKGKGNPEVEALTDEAVAIGEELSAYRHN
B40: D domain of SEQ ID NO: 629 (designed binder)
chain: MGSWIEFDERLDAIDFRLWALGGSEAELAWFEGWIAEFESDLQLYKGKGNPEVEALNEEANAIFHELSAYRHN

This experiment concerns the target T1, CD123. The experiment in a line: ELISA. On the set-up: unit not given here. Background: In an ELISA, binding on a coated surface is turned into a signal by an enzyme label.
For the molecule B1, the ELISA_avg worked out at 3.3.
B2 gave an ELISA_avg of 3.7.
With B3 the figure was 9.5.
With B4 the figure was 3.2; with B5, 3.6; with B6, 3.2.
The molecule B7 had an ELISA_avg of 4.5.
Take B8: the ELISA_avg was determined as 10.
With B9 the figure was 6.8; with B10, 3.9.
As for B11, the figure is 4.5.
Molecule B12 yielded an ELISA_avg of 4.1.
As for B13, the figure is 5.1; as for B14, 4.3; as for B15, 5.5.
B16 came in with an ELISA_avg of 5.2.
The molecule B17 registered an ELISA_avg of 3.
In turn, B18 displayed an ELISA_avg of 3.5.
As for B19, the figure is 4.
As for B20, the figure is 3.1; as for B21, 4.1; as for B22, 3.9.
With B23 the figure was 3.1; with B24, 3.6.
As for B25, the ELISA_avg was 8.2.
B26 showed an ELISA_avg of 3.7.
As for B27, the figure is 3.4; as for B28, 4.6; as for B29, 9.4.
With B30 the figure was 6.5; with B31, 5.5; with B32, 3.5.
In turn, B33 returned an ELISA_avg of 3.4.
With B34 the figure was 4.5; with B35, 5.8; with B36, 4.
As for B37, the figure is 5.4; as for B38, 3.7.
As to B39, the ELISA_avg turned out to be 4.5.
As for B40, the figure is 7.

The values above are taken from patent US20250026849A1 (ARCELLX, published 2025).
